Laboratory results as given in paper PMC8464078.

Assays:
[1] = molecular target: Xenopus Rif1–CTD S2058A (Xenopus); test: pull-down
[2] = molecular target: Xenopus Rif1–CTD S2058D (Xenopus); test: pull-down

Question: Which PP1 bound, percent of wild type Rif1–CTD [1] does the source give for “protein phosphatase 1 (PP1), gamma catalytic subunit (from UniProt P36874 1-323) (enzyme)” here?
Answer: 54%

Question: What about the PP1 bound, percent of wild type Rif1–CTD [2] of the same substance?
Answer: 9%
